B1: Chorion-specific transcription factor GCMb (Homo sapiens), O75603 (parent)
chain: MPAAAVQEAVGVCSYGMQLSWDINDPQMPQELALFDQFREWPDGYVRFIYSSDEKKAQRHLSGWAMRNTNNHNGHILKKSCLGVVVCTQACTLPDGSRLQLRPAICDKARLKQQKKACPNCHSALELIPCRGHSGYPVTNFWRLDGNAIFFQAKGVHDHPRPESKSETEARRSAIKRQMASFYQPQKKRIRESEAEENQDSSGHFSNIPPLENPEDFDIVTETSFPIPGQPCPSFPKSDVYKATCDLATFQGDKMPPFQKYSSPRIYLPRPPCSYELANPGYTNSSPYPTLYKDSTSIPNDTDWVHLNTLQCNVNSYSSYERSFDFTNKQHGWKPALGKPSLVERTNHGQFQAMATRPYYNPELPCRYLTTPPPGAPALQTVITTTTKVSYQAYQPPAMKYSDSVREVKSLSSCNYAPEDTGMSVYPEPWGPPVTVTRAASPSGPPPMKIAGDCRAIRPTVAIPHEPVSSRTDEAETWDVCLSGLGSAVSYSDRVGPFFTYNNEDF
partner: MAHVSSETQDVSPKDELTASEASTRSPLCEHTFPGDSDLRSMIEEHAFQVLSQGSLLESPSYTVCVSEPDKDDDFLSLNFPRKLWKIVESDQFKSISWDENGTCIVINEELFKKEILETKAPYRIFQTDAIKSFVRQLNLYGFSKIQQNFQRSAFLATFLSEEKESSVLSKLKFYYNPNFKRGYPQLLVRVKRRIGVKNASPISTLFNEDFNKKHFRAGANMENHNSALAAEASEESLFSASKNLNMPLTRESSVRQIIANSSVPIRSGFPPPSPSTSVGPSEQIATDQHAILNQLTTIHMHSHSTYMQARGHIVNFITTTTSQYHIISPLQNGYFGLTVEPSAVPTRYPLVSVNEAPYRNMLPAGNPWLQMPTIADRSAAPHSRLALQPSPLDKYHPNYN
B2: Keratin, type II cytoskeletal 6A (Homo sapiens), P02538 (parent)
chain: MASTSTTIRSHSSSRRGFSANSARLPGVSRSGFSSVSVSRSRGSGGLGGACGGAGFGSRSLYGLGGSKRISIGGGSCAISGGYGSRAGGSYGFGGAGSGFGFGGGAGIGFGLGGGAGLAGGFGGPGFPVCPPGGIQEVTVNQSLLTPLNLQIDPTIQRVRAEEREQIKTLNNKFASFIDKVRFLEQQNKVLETKWTLLQEQGTKTVRQNLEPLFEQYINNLRRQLDSIVGERGRLDSELRGMQDLVEDFKNKYEDEINKRTAAENEFVTLKKDVDAAYMNKVELQAKADTLTDEINFLRALYDAELSQMQTHISDTSVVLSMDNNRNLDLDSIIAEVKAQYEEIAQRSRAEAESWYQTKYEELQVTAGRHGDDLRNTKQEIAEINRMIQRLRSEIDHVKKQCANLQAAIADAEQRGEMALKDAKNKLEGLEDALQKAKQDLARLLKEYQELMNVKLALDVEIATYRKLLEGEECRLNGEGVGQVNISVVQSTVSSGYGGASGVGSGLGLGGGSSYSYGSGLGVGGGFSSSSGRAIGGGLSSVGGGSSTIKYTTTSSSSRKSYKH
partner: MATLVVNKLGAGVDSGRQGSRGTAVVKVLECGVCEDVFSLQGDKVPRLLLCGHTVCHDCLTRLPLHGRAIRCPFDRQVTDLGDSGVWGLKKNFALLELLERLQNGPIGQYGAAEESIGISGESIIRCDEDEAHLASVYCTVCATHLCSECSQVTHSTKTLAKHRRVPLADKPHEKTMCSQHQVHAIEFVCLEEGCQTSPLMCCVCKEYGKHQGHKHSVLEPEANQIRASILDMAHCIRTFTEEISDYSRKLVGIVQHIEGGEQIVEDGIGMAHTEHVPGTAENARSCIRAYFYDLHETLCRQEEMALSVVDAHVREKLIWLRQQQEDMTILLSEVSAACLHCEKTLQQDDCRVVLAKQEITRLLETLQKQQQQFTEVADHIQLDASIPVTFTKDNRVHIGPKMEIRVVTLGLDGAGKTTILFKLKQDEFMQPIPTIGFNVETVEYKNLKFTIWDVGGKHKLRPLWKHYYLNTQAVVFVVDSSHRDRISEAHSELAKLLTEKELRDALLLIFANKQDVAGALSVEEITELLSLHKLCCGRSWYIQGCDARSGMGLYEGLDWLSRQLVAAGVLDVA

Variants of: B1
Conditions: with hsfy1_human HSFY1, Q96LI6

MPAAAVQEAVGVCSYGMQLSWDINDPQMPQELALFDQFREWPDGYVLFIYSSDEKKAQRHLSGWAMRNTNNHNGHILKKSCLGVVVCTQACTLPDGSRLQLRPAICDKARLKQQKKACPNCHSALELIPCRGHSGYPVTNFWRLDGNAIFFQAKGVHDHPRPESKSETEARRSAIKRQMASFYQPQKKRIRESEAEENQDSSGHFSNIPPLENPEDFDIVTETSFPIPGQPCPSFPKSDVYKATCDLATFQGDKMPPFQKYSSPRIYLPRPPCSYELANPGYTNSSPYPTLYKDSTSIPNDTDWVHLNTLQCNVNSYSSYERSFDFTNKQHGWKPALGKPSLVERTNHGQFQAMATRPYYNPELPCRYLTTPPPGAPALQTVITTTTKVSYQAYQPPAMKYSDSVREVKSLSSCNYAPEDTGMSVYPEPWGPPVTVTRAASPSGPPPMKIAGDCRAIRPTVAIPHEPVSSRTDEAETWDVCLSGLGSAVSYSDRVGPFFTYNNEDF [R47L] was tested. Which “effect of a mutation on the interaction” value did it give?
Its value is “disrupting interaction”.

Variants of: B1
Conditions: with hsfy1_human HSFY1, Q96LI6
Remark: another data set of the same source

How did the “effect of a mutation on the interaction” value turn out when MPAAAVQEAVGVCSYGMQLSWDINDPQMPQELALFDQFREWPDGYVRFIYSSDEKKAQRHLSSWAMRNTNNHNGHILKKSCLGVVVCTQACTLPDGSRLQLRPAICDKARLKQQKKACPNCHSALELIPCRGHSGYPVTNFWRLDGNAIFFQAKGVHDHPRPESKSETEARRSAIKRQMASFYQPQKKRIRESEAEENQDSSGHFSNIPPLENPEDFDIVTETSFPIPGQPCPSFPKSDVYKATCDLATFQGDKMPPFQKYSSPRIYLPRPPCSYELANPGYTNSSPYPTLYKDSTSIPNDTDWVHLNTLQCNVNSYSSYERSFDFTNKQHGWKPALGKPSLVERTNHGQFQAMATRPYYNPELPCRYLTTPPPGAPALQTVITTTTKVSYQAYQPPAMKYSDSVREVKSLSSCNYAPEDTGMSVYPEPWGPPVTVTRAASPSGPPPMKIAGDCRAIRPTVAIPHEPVSSRTDEAETWDVCLSGLGSAVSYSDRVGPFFTYNNEDF [G63S] was run?
The value was “disrupting interaction”.

Variants of: B2
Conditions: with tri23_human TRIM23, P36406

Which “effect of a mutation on the interaction” value does the source give for MASTSTTIRSHSSSRRGFSANSARLPGVSRSGFSSVSVSRSRGSGGLGGACGGAGFGSRSLYGLGGSKRISIGGGSCAISGGYGSRAGGSYGFGGAGSGFGFGGGAGIGFGLGGGAGLAGGFGGPGFPVCPPGGIQEVTVNQSLLTPLNLQIDPTIQRVRAEEREQIKTLKNKFASFIDKVRFLEQQNKVLETKWTLLQEQGTKTVRQNLEPLFEQYINNLRRQLDSIVGERGRLDSELRGMQDLVEDFKNKYEDEINKRTAAENEFVTLKKDVDAAYMNKVELQAKADTLTDEINFLRALYDAELSQMQTHISDTSVVLSMDNNRNLDLDSIIAEVKAQYEEIAQRSRAEAESWYQTKYEELQVTAGRHGDDLRNTKQEIAEINRMIQRLRSEIDHVKKQCANLQAAIADAEQRGEMALKDAKNKLEGLEDALQKAKQDLARLLKEYQELMNVKLALDVEIATYRKLLEGEECRLNGEGVGQVNISVVQSTVSSGYGGASGVGSGLGLGGGSSYSYGSGLGVGGGFSSSSGRAIGGGLSSVGGGSSTIKYTTTSSSSRKSYKH [N171K] here?
The value was “disrupting interaction”.

— IntAct's records for PubMed 25416956
